Results reported in PMC12102438.

Target: KHK4083
Experiment: BLI
Settings: 100 nmol/L KHK4083; parent: est. 1.0; read off a plot

Point of comparison: “Recombinant OX40-His protein (human OX40) (from UniProt P43489) D117A”, ratio to parent 28. Against it:
- Recombinant OX40-His protein (human OX40) (from UniProt P43489) D34A — lower, 0.8
- Recombinant OX40-His protein (human OX40) (from UniProt P43489) D40A — lower, 2
- Recombinant OX40-His protein (human OX40) (from UniProt P43489) H30A — lower, 0.6
- Recombinant OX40-His protein (human OX40) (from UniProt P43489) K82A — lower, 15
- Recombinant OX40-His protein (human OX40) (from UniProt P43489) K120A — lower, 16
- Recombinant OX40-His protein (human OX40) (from UniProt P43489) S38A — lower, 1
- Recombinant OX40-His protein (human OX40) (from UniProt P43489) S118A — lower, 6.4
- Recombinant OX40-His protein (human OX40) (from UniProt P43489) T35A — lower, 0.6
- Recombinant OX40-His protein (human OX40) (from UniProt P43489) Y36A — lower, 1.6
- Recombinant OX40-His protein (human OX40) (from UniProt P43489) Y119A — lower, 21
